Laboratory results reported in patent publication US20120034232A1 (INNATE PHARMA, published 2012).

Assays:
[1] = target: recombinant human His-tagged TLR3 extracellular domain recombinant protein (R&D systems, #1487-TR-050) (human) (UniProt O15455); assay: SPR (Biacore T100), rhTLR3 immobilised on CM5 chip, antibody in solution, bivalent affinity, pH 7.2, mean of 2 or 3 experiments
[2] = target: recombinant human His-tagged TLR3 extracellular domain recombinant protein (R&D systems, #1487-TR-050) (human) (UniProt O15455); assay: SPR (Biacore T100), rhTLR3 immobilised on CM5 chip, antibody in solution, bivalent affinity, pH 5.6, mean of 2 or 3 experiments
[3] = target: T1, recombinant human His-tagged TLR3 extracellular domain recombinant protein (R&D systems, #1487-TR-050) (human, UniProt O15455 24-704); assay: ELISA, His-tagged rec TLR3 (reference: His-tagged rec TLR4) on Ni-NTA plates, hybridoma supernatant
T1 construct: Bought protein; also called recombinant human TLR3; rhTLR3; not shown: His tag

[4] = target: T2, human TLR3 expressed in cells (293T cells stably transfected with pUNO-hTLR3); endogenous TLR3 of human … (human, UniProt O15455 24-904); assay: cell-based or functional assay
[5] = target: T2, human TLR3 expressed in cells (293T …); assay: cell-based or functional assay; remark: listed apart in the source

Row | Kd [1] [nM] | Kd [2] [nM] | ratio of DO obtained in TLR3 ELISA to DO obtained in TLR4 ELISA [3] | IC50 of inhibition of luciferase expression in 293-huTLR3 cells, polyAU 300 µg/ml [4] [µg/mL] | IC50 of inhibition of luciferase expression, polyAU 100 µg/ml [5] [µg/mL] | Molecule
1 | 45 | 9 |  |  |  | anti-TLR3 antibody TLR3.7 (eBiosciences)
2 |  |  | > 10 | 1.83 | < 5 | anti-TLR3 monoclonal antibody 23C8 (antibody, V domains shown) VH: EVQLQQSGPELVKPGASVKISCKASGYSFTGYFMHWVKQSHVKSLEWIGRINPYNGATSYNQNFKDKASLTVDKSSSTSYMELHSLTSEDSAVYYCVRDDGGNYPFDYWGQGTTLTVS VL: DIQMTQSPASLSASVGETVTITCRASENIYSYLAWYQQKQGKSPQLLVYYAKTLAEGVPSRFSGSGTGTQFSLKINSLQPEDFGSYYCQHHYGTPYTFGGGTKLEIK
3 |  |  | > 10 | 5.56 |  | anti-TLR3 monoclonal antibody 28F11 (antibody, V domains shown) VH: EVQLQQSGPELVKPGASVKISCKASGYSFTGYYIHWVKQSHVKSLEWIGRINPYYGATSYNQNFKDKANLTVDKSSSTAYMELHSLTSDDSAVYYCARSTKLGYLDYWGQGTTLTVS VL: DIQMTQSPASLSASVGETVTITCRASENIYSNLAWYQQKQGKSPQLLIYNAKTLAEGVPSRFSGSGSGTQYFLKINSLQPEDFGSYYCQHHYGTPFTFGGGTKLEIK
4 |  |  |  |  | < 5 | anti-TLR3 monoclonal antibody 34A3 (antibody, V domains shown) VH: EIQLQQSGPELVKPGASVKVSCKASGYVFTTYSIYWVKQSHGKSLEWIGYIDPYNGDTSYNQKFKGKATLTVDKSSSTAYMHLNSLTSEDSTVYYCAREGNYYGYFDYWGQGTTLTVS VL: QIVLTQSPALMSASPGEKVTMTCSASSSVSYMFWYQQKPRSSPKPWIYLTSNLASGVPARFSGSGSGTSYSLTISSMEAEDAATYYCQQWTGNPPTFGGGTKLEIK
5 |  |  | > 10 |  |  | anti-TLR3 monoclonal antibody 29H3 (antibody, V domains shown, also called 29H3.7; CNCM I-4187) VH: DVQLQESGPDLVKPSQSLSLTCTVTGYSITSGYSWHWIRQFLGNKLEWMGYIHYSGITNYNPSLRSRISFTRDTSKNQFFLQLNSVTTEDTATYYCARDGYYGMDYWGQGTSVTVS VL: DIVMTQSQKFMSTSVGDRVSITCKASQNVRTSVAWYQQKPGQSPKALIYLASNRHTGVPDRFTGSGSGTDFTLTVSNIQSEDLADYFCLQHWNYPYTFGGGTKLEIK
